How the values were obtained:
[1] = molecular target: SARS-CoV-2 nsp15 N164A (SARS-CoV-2); assay: SEC; […] (20 mM Tris-HCl pH 8, 150 mM NaCl); […]
[2] = molecular target: SARS-CoV-2 nsp15 K290A (SARS-CoV-2); assay: SEC; […] (20 mM Tris-HCl pH 8, 150 mM NaCl); […]

SARS-CoV-2 nsp15 N164A (enzyme) was tested, and the stoichiometry N [1] was 6.

In the case of SARS-CoV-2 nsp15 K290A (enzyme), the stoichiometry N [2] is reported as 6.

— publication PMC8880170
